The values that follow come from paper PMC9687869, “Redox Regulation of Signaling Complex between Caveolin-1 and Neuronal Calcium Sensor Recoverin” (Biomolecules, 2022).

The chains are these.
B1: N-terminal fragment of caveolin-1 M1-R101 with N-terminal His6-tag (Cav) (domain or fragment, UniProt Q03135 1-101, looked up)
chain: MSGGKYVDSEGHLYTVPIREQGNIYKPNNKAMADELSEKQVYDAHTKEIDLVNRDPKHLNDDVVKIDFEDVIAEPEGTHSFDGIWKASFTTFTVTKYWFYR
notes: caveolin-1, N-terminal domain and oligomerization domain, residues M1-R101; Forms homogeneous oligomers in solution by DLS; the number of copies was not measured; It names pET-22b and an N-terminal His6-tag; also called Cav (1-101 aa) fragment; caveolin-1 fragment; source: E. coli BL21 Star (DE3), solubilised in guanidine hydrochloride, dialysed, purified (Ni-NTA)
B2: recoverin C39D mutant (Rec-C39D) (natural protein, UniProt P21457 1-202, looked up)
chain: MGNSKSGALSKEILEELQLNTKFTEEELSSWYQSFLKEDPSGRITRQEFQTIYSKFFPEADPKAYAQHVFRSFDANSDGTLDFKEYVIALHMTSAGKTNQKLEWAFSLYDVDGNGTISKNEVLEIVTAIFKMISPEDTKHLPEDENTPEKRAEKIWGFFGKKDDDKLTEKEFIEGTLANKEILRLIQFEPQKVKEKLKEKKL
modifications: N-terminal myristoyl group (myristoylation rate more than 95%)
notes: recoverin with C39D, which mimics oxidation of cysteine-39 to a sulfenic/sulfinic/sulfonic group; also called thiol oxidation mimicking mutant; oxidized monomer mimic
B4: disulfide dimer of recoverin (dRec) (natural protein)
chain: GNSKSGALSKEILEELQLNTKFTEEELSSWYQSFLKECPSGRITRQEFQTIYSKFFPEADPKAYAQHVFRSFDANSDGTLDFKEYVIALHMTSAGKTNQKLEWAFSLYDVDGNGTISKNEVLEIVTAIFKMISPEDTKHLPEDENTPEKRAEKIWGFFGKKDDDKLTEKEFIEGTLANKEILRLIQFEPQKVKEKLKEKKL
modifications: N-terminal myristoyl group; disulfide between the cysteine-39 residues of the two chains

Common to all, as to details: both partners purified
Experiment [1] addresses B2. Nature of the experiment: SPR; Cav or CavE immobilised by amine coupling (ProteOn GLH chip); analyte 2.5-30 uM recoverin form; 10 mM HEPES pH 7.4, 150 mM NaCl, 2 mM DTT (none for dRec), 0.05% TWEEN 20, with calcium (1 mM CaCl2 in the methods, 2 mM Ca2+ in Table 2); 25 C; heterogeneous ligand model.
Experiment [2] concerns the target B4. Nature of the experiment: SPR; Cav or CavE immobilised by amine coupling (ProteOn GLH chip); analyte 2.5-30 uM recoverin form; 10 mM HEPES pH 7.4, 150 mM NaCl, 2 mM DTT (none for dRec), 0.05% TWEEN 20, calcium-free (1 mM EDTA in the methods, 2 mM EGTA in Table 2); 25 C; heterogeneous ligand model.
The target of experiment [3] is B2. The description is as above.
For experiment [4], the target named is T1, recombinant myristoylated recoverin, reduced monomer (Rec) (UniProt P21457 1-202, N-terminal myristoyl group (myristoylation rate more than 95%)).
T1 construct: recoverin, photoreceptor neuronal calcium sensor; also called intact recoverin; wild-type recoverin
T1 sequence (looked up): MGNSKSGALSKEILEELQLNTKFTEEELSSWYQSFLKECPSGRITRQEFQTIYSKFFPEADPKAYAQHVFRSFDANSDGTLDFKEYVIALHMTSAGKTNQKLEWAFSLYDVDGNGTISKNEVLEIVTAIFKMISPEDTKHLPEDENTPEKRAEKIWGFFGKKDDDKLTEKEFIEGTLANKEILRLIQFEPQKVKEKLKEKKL
The experiment is described as above.

Experiment [5] concerns the target B1. As to the kind of experiment: pull-down; Cav or CavE covalently attached to BrCN-activated Sepharose CL-4B; 50 ug recoverin form; 20 mM Tris-HCl pH 7.5, 100 mM NaCl, 2 mM MgCl2, 2 mM EGTA (calcium-free); 30 min at room temperature; bound protein analysed by SDS-PAGE.

For B1, the Kd – broadly, the equilibrium constant for the complex coming apart – in experiment [1] was found to be 376 ± 173 nM; in experiment [2], 48.6 ± 1.1 nM; in experiment [3] it was 140 ± 44 nM; in experiment [4], 490 ± 160 nM. The koff (in general, the first-order rate constant of dissociation) in experiment [1] came out at 0.000186 s⁻¹; in experiment [2], 2.44e-05 s⁻¹; in experiment [3], 0.000117 s⁻¹; in experiment [4], 0.000105 s⁻¹.
For B2, the “fold increase of the interaction against Rec (pull-down)” value in experiment [5] was 2 to 3 fold.

B3: N-terminally tagged caveolin-1 fragment M1-R101 with Y14E substitution (CavE) (domain or fragment, UniProt Q03135 1-101, looked up)
chain: MSGGKYVDSEGHLETVPIREQGNIYKPNNKAMADELSEKQVYDAHTKEIDLVNRDPKHLNDDVVKIDFEDVIAEPEGTHSFDGIWKASFTTFTVTKYWFYR
notes: caveolin-1, residues M1-R101 with Y14E, which mimics phosphorylation at Y14; built on Cav; Forms larger oligomeric particles than Cav by DLS; also called caveolin-1 mutant Y14E; source: E. coli BL21 Star (DE3), solubilised in guanidine hydrochloride, dialysed, purified (Ni-NTA)
On to B3, for which the Kd was 629 ± 257 nM in experiment [1], 218 ± 87 nM in experiment [2], 329 ± 145 nM in experiment [3] and 1110 ± 66 nM in experiment [4]. Further, the koff in experiment [1] stood at 0.000202 s⁻¹; in experiment [2], 8.08e-05 s⁻¹; in experiment [3], 0.000172 s⁻¹; in experiment [4], 8.81e-05 s⁻¹.
As for B4, in experiment [5], the “fold increase of the interaction against Rec (pull-down)” value fell in the range of 2 to 3 fold.
